* marks the point of attachment. Fmoc = O=C(OCC1c2ccccc2-c2ccccc21)*

For one experiment, the system named is legumain. The note with it: background literature; cited from earlier work.
The target in the next experiment is T1, mouse legumain (Mus musculus, UniProt O89017).
T1 construct: expressed in transfected cells; host or cells: HEK293 cells infected with adenovirus
T1 sequence (O89017 18-325): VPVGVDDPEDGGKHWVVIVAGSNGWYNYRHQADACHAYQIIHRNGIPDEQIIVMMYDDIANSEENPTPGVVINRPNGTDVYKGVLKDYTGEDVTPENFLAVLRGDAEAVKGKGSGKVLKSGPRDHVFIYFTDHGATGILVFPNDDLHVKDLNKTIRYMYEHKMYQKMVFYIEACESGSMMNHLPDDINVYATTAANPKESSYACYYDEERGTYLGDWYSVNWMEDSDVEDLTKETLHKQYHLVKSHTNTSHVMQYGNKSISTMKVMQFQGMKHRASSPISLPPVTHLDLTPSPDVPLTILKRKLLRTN
Description: HEK293 cell-surface legumain activity assay (Z-AAN-MCA hydrolysis). It counts as cell-based. The note with it: inhibitor at 100 nM, live HEK293 cells overexpressing mouse legumain, pH 5.8, FIG. 7. How it is done: HEK293 cells were plated in 96-well black tissue culture plate (BD Biosciences) and infected with adenovirus expressing mouse legumain at MOI of 10. 24 hours post infection, the cells were washed once with legumain assay buffer [39.5 mM citric acid, 125 mM Na2HPO4 (pH 5.8), 1 mM EDTA, 0.8% NaCl], and 50 μl of assay buffer containing 10 nM of the substrate Z-AAN-MCA (Peptide Institute, Louisville, Ky.) was added to each well. The protease inhibitors cystatin C(R&D Systems, Minneapolis, Minn.) or E64 (Sigma) were included in the assay buffer at a concentration of 100 nM. The plates were incubated at 37° C. for 10 min and measured for fluorescence in a VICTOR 3™ fluorescence plate reader (PerkinElmer, Wellesley, Mass.) using an excitation filter of 360 nm and an emission filter of 460 nm. Repeated measurements were carried out once every 5 min over a period of 20 min at room temperature. The increase of fluorescence over time was plotted.

Experiment [1] concerns HUVECs. The experiment is described as follows: In vitro wound-healing assay, HUVECs. The format is cell-based, human. The procedure:
(§1) HEK293 cells (ATCC, Manassas, Va.) used at passage 10 and HUVECs (Cambrex, Walkersville, Md.) used at passage 3 were seeded onto single-chamber slides (Lab-Tek cat# 177410, Campbell, Calif.). HEK293 cells were cultured to >80% confluence in DMEM supplemented with 10% FBS and 1% penicillin/streptomycin/L-glutamine (Cat# 10378-016, Gibco, Invitrogen, Carlsbad, Calif.), and HUVECs were grown to >90% confluence in EGM (Cat# CC-3124, Cambrex, East Rutherford, N.J.). After washing the cells in serum-free medium, the monolayers were mechanically wounded using a cell scraper (Cat# 3010, Costar [Corning], Fisher Scientific, Pittsburgh, Pa.) to obtain a rectangular denuded area of 2.0×1.7 cm^2. Wounded cells were then incubated in serum-free medium supplemented with 0.05% delipidized BSA (BD Biosciences, Bedford, Mass.) and with VEGF (10 ng/mL, R&D Systems, Minneapolis, Minn.) or legumain (10 ng/mL or 25 ng/mL, R&D Systems, Minneapolis, Minn.) for 24 hours (HEK293 cells) or 20 hours (HUVECs). Wound healing was quantified by measuring the number of cells present in the area of the initial wound using a luminescent cell viability assay (CellTiter-Glo® Assay, Promega, Madison, Wis.).

For the next experiment, the system named is primary human monocytes. Description: Human monocytes migration assay (modified Boyden chamber). The format is cell-based. The note with it: for chemoattractant function: data not shown. How it is done:
Human monocytes were isolated from the blood of healthy donors using the negative selection method with the Monocyte Isolation Kit (Miltenyi Biotech) according to manufacturer's instructions. The purity of isolated monocytes was confirmed by flow cytometry on CD 14-stained cells. Cells were tested in a modified Boyden chamber assay using Multi Screen 96-well filtration plate (Millipore, 5.0 μm pore size). Serum-starved monocytes were added to the top chamber (20,000 cells/well), and serum-free culture medium was added to the bottom chamber with or without purified legumain (R&D Systems). VEGF (R&D Systems) was used as a positive control. Cells that migrated into the bottom chamber were quantified using a luminescent cell viability assay (CellTiter-Glo® Assay, Promega, Madison, Wis.) at 2 hours.

Experiment [2] deals with HUVECs. The experiment is described as follows: Modified Boyden chamber Matrigel invasion assay, HUVECs. The format is cell-based, human. The text has this: In a modified Boyden chamber assay, 25,000 serum starved HUVECs loaded into the top chamber were allowed to invade a Matrigel coated PET membrane ([…], Becton Dickinson, BioCoat Angiogenesis System: Endothelial Cell Invasion) in response to purified legumain added to the bottom chamber. Cells that invaded through the Matrigel matrix were quantified using a luminescent cell viability assay (CellTiter-Glo® Assay, Promega, Madison, Wis.). VEGF was used a positive control.

The test system of the next experiment is HEK293 cells. Description: In vitro wound-healing assay, HEK293 cells. It counts as cell-based, human. Particulars: legumain at 10 ng/mL and 25 ng/mL, 24 hours, p<0.05, FIG. 8. The procedure: as §1

As to `CC(C)C[C@H](NC(=O)[C@H]1O[C@@H]1C(=O)O)C(=O)NCCCCN=C(N)N` (relative stereo) [E64, trans-epoxysuccinyl-L-leucylamido-(4-guanidino)butane, reference compound], the “effect on legumain activity” value in the experiment on legumain is given as “unaffected”. Also, the “inhibition of cell-surface legumain activity” value against mouse legumain was “not”. Consider `O=S(=O)(O)c1cc[c]([Hg][Cl])cc1` [p-chloromercuribenzene-sulfonic acid], for which, in the experiment on legumain, the “effect on legumain activity” value is reported as “inhibition”. On to `[Cu+2]` [Cu2+], for which, in the experiment on legumain, the “effect on legumain activity” value was “inhibition”. Consider `CC(=O)N[C@@H](CC(C)C)C(=O)N[C@@H](CC(C)C)C(=O)N[C@H](C=O)CCCNC(=N)N` [leupeptin], for which, in the experiment with legumain, the “effect on legumain activity” value is on record as “unaffected”.

On to VEGF [reference compound], for which the “increase in migration compared with legumain at 25 ng/mL” value in the experiment with HUVECs [1] (VEGF at 10 ng/mL, positive control, FIG. 9) was “same extent”. Also, the “number of migrated cells compared with legumain at 25 ng/mL” value with primary human monocytes (VEGF at 10 ng/mL, positive control) is on record as “similar”. Besides, in the experiment with HUVECs [2] (10 ng/mL VEGF, 22 hour period), the “invasion response compared with 25 ng/mL legumain” value is “similar”. Fmoc-AENK-NH2: in the experiment on legumain, the “effect on legumain activity” value is “inhibitor”.

`Cc1cccc(C)c1C(=O)OCC(=O)C(CC(N)=O)NC(=O)OCc1ccccc1` (stereo not shown) [MV026630, 2,6-dimethyl-benzoic acid 3-benzyloxycarbonylamino-4-carbamoyl-2-oxo-butyl ester]: in the experiment on legumain, the “effect on legumain activity” value is listed as “inhibit”. For the molecule `[Hg+2]` [Hg2+], the “effect on legumain activity” value in the experiment with legumain is “inhibition”. On to `C[C@H](NC(=O)[C@H](Cc1ccccc1)NC(=O)OCc1ccccc1)C(=O)C=[N+]=[N-]` [Z-Phe-Ala-CHN2], for which the “effect on legumain activity” value in the experiment with legumain is given as “unaffected”.

B1: cystatin M: cystatin reported to inhibit legumain (protein, UniProt Q15828 29-149, looked up)
Cystatin-M: RPQERMVGELRDLSPDDPQVQKAAQAAVASYNMGSNSIYYFRDTHIIKAQSQLVAGIKYFLTMEMGSTDCRKTRVTGDHVDLTTCPLAAGAQQEKLRCDFEVLVVPWQNSSQLLKHNCVQM
As to B1, in the experiment with legumain, the “effect on legumain activity” value was “inhibited”.

B2: ovocystatin: cystatin reported to inhibit legumain (protein, UniProt P01038 24-139, looked up)
Cystatin: SEDRSRLLGAPVPVDENDEGLQRALQFAMAEYNRASNDKYSSRVVRVISAKRQLVSGIKYILQVEIGRTTCPKSSGDLQSCEFHDEPEMAKYTTCTFVVYSIPWLNQIKLLESKCQ
As to B2, the “effect on legumain activity” value in the experiment on legumain was “inhibited”.

B3: heat-denatured form: heat-denatured form of legumain (protein, UniProt Q99538 18-323, looked up)
Legumain: VPIDDPEDGGKHWVVIVAGSNGWYNYRHQADACHAYQIIHRNGIPDEQIVVMMYDDIAYSEDNPTPGIVINRPNGTDVYQGVPKDYTGEDVTPQNFLAVLRGDAEAVKGIGSGKVLKSGPQDHVFIYFTDHGSTGILVFPNEDLHVKDLNETIHYMYKHKMYRKMVFYIEACESGSMMNHLPDNINVYATTAANPRESSYACYYDEKRSTYLGDWYSVNWMEDSDVEDLTKETLHKQYHLVKSHTNTSHVMQYGNKTISTMKVMQFQGMKRKASSPVPLPPVTHLDLTPSPDVPLTIMKRKLMNTN
modifications: heat-denatured
notes: heat-denatured form of legumain
For B3, the chemoattractant function result in the experiment on primary human monocytes was “retain the chemoattractant function”.

B4: legumain: purified proform of the lysosomal cysteine protease legumain (R&D Systems), tested as chemoattractant (protein)
chain: VPVGVDDPEDGGKHWVVIVAGSNGWYNYRHQADACHAYQIIHRNGIPDEQIIVMMYDDIANSEENPTPGVVINRPNGTDVYKGVLKDYTGEDVTPENFLAVLRGDAEAVKGKGSGKVLKSGPRDHVFIYFTDHGATGILVFPNDDLHVKDLNKTIRYMYEHKMYQKMVFYIEACESGSMMNHLPDDINVYATTAANPKESSYACYYDEERGTYLGDWYSVNWMEDSDVEDLTKETLHKQYHLVKSHTNTSHVMQYGNKSISTMKVMQFQGMKHRASSPISLPPVTHLDLTPSPDVPLTILKRKLLRTN
For B4, the “cell migration relative to control” value with HUVECs [1] (legumain at 25 ng/mL, 20 hours, p<0.05, FIG. 9) is “significant increase in cell migration”; in the experiment on HEK293 cells it was “significant increase in cell migration”. Also, in the experiment on primary human monocytes (25 ng/mL, 2 hours), the “fold increase in migration of monocytes relative to control” value stood at 2.3 fold. The “migration of human monocytes towards legumain” value with primary human monocytes (Boyden chamber, 2 hours, FIG. 6) is listed as “dose-dependent increase”. In addition, the chemoattractant function result with primary human monocytes is “retain the chemoattractant function”. The “minimal effective concentration of legumain” value with primary human monocytes (migration of primary human monocytes, Boyden chamber, 2 hours) worked out at 25 ng/mL. Moreover, in the experiment on HUVECs [2] (22 hour period, FIG. 10), the “number of cells invading a Matrigel coated membrane” value is listed as “dose-dependent increase”. Also, in the experiment with HUVECs [2] (legumain at 25 ng/mL, p<0.05, FIG. 10), the “cell invasion relative to control” value is “significant increase in cell invasion”.

B5: cystatin C: protease inhibitor cystatin C (R&D Systems) (protein, UniProt P01034 27-146, looked up)
Cystatin-C: SSPGKPPRLVGGPMDASVEEEGVRRALDFAVGEYNKASNDMYHSRALQVVRARKQIVAGVNYFLDVELGRTTCTKTQPNLDNCPFHDQPHLKRKAFCSFQIYAVPWQGTMTLSKSTCQDA
As to B5, the “effect on legumain activity” value in the experiment on legumain is “inhibited”. Further, in the experiment with mouse legumain, the “inhibition of cell-surface legumain activity” value is reported as “inhibited”.

Values taken from patent US20100158924A1, “Expression of the cysteine protease legumain in vascular and inflammatory diseases” (Wyeth, LLC, priority 2006, published 2010).
